Source: article PMC11947619, “Molecular mechanism of Mad2 conformational conversion promoted by the Mad2‐interaction motif of Cdc20” (Protein Science : A Publication of the Protein Society, 2025)

Assays:
O‐Mad2^R133A = biological target: T1, O‐Mad2^R133A (Homo sapiens, UniProt Q13257, R133A); experiment: Time-resolved NMR: O-Mad2 to C-Mad2 conversion of O-Mad2^R133A with MIM peptides; format: biochemical; conditions: 100 μM O-Mad2^R133A, 25°C
T1 construct: unable to collect equivalent data for full‐length O‐Mad2^R133A; His6-DoubleStrep-TEV (N); made in house
Description: FIGURE 2 NMR fingerprinting of Mad2. (a) Structural orientations of Trp75 (on the αB helix) and Trp167 (on the “safety‐belt”) in Mad2 produce distinct indole NH resonances. […] NMR spectra for O‐Mad2^R133A and “empty” C‐Mad2^L13A/R133A and C‐Mad2^R133A:Cdc20^MIM‐111‐138 are from Fischer et al. ([2022]) (c) Mad2 conversion rates vary with different MIM peptides. Conversion was traced over 24 h at 25°C using the Trp75 and Trp167 side‐chain resonances as reporters. MIM peptides were added at two‐fold molar excess to Mad2 (100 μM). Each spectrum required 12 min of acquisition time, therefore the 15 min time‐points represent the earliest spectra in the time‐resolved series. The schematics show the conformation of Mad2 as indicated by the tryptophan side‐chain resonances. A black tick marks when conversion is considered complete. NMR data for O‐Mad2^R133A with and without Cdc20^MIM‐111‐138 shown are from Fischer et al. ([2022]). In the case of full‐length Cdc20, the MIM sequence is sequestered by an auto‐inhibitory intramolecular interaction within Cdc20 itself, which prevents it from being readily accessible for binding to C‐Mad2 (Piano et al., [2021]). Conversely, isolated MIM peptides lack this auto‐inhibitory mechanism, allowing them to bind directly to C‐Mad2 without obstruction.
To understand whether Mad2 conversion times are modulated by different C‐Mad2 ligands, we used time‐resolved NMR to determine the conversion time of 100 μM O‐Mad2^R133A at 25°C. The indole NH resonances of Trp75 and Trp167 were used as reporters (Figure 2b). […] In contrast, conversion took ~24 h in the absence of Cdc20^MIM‐111‐138 peptide (Fischer et al., [2022]) (Figures 2c and S4b). […] Other MIM peptides also accelerated the O‐Mad2 to C‐Mad2 conversion. […] In “empty” C‐Mad2, the β7/β8 hairpin is displaced to expose the β6 strand for pairing with the MIM peptide (Luo et al., [2004]) (Figure S3a).
Mad2 constructs were expressed in BL21 Star (DE3) cells (Thermo Fisher Scientific), co‐transformed with a pRARE plasmid (Merck). Uniformly labeled proteins were expressed in M9 minimal media (6 g/L Na2HPO4, 3 g/L KH2PO4, 0.5 g/L NaCl) supplemented with 1.7 g/L yeast nitrogen base without NH4Cl and amino acids (Sigma Y1251). 1 g/L ^15NH4Cl and 4 g/L glucose were supplemented for ^15N labeling. For ^13C/^15N double‐labeled samples, unlabeled glucose was replaced with 3 g/L ^13C‐glucose. Protein expression was induced with 0.4 mM IPTG at 16°C overnight. All samples were purified as previously described (Luo & Yu, [2005]; Mapelli et al., [2007]) and all O‐Mad2 variants were kept at 4°C during purification to prevent conversion to C‐Mad2. Prior to all NMR experiments, proteins were dialyzed into 20 mM HEPES, pH 7.0, 100 mM NaCl, 1 mM TCEP. ^13C/^15N‐labeled samples were used for backbone assignment, and all other experimental data were acquired on ^15N‐labeled samples. Proteins were kept on ice before NMR experiments to ensure all O‐Mad2 remained in the open state. For “bound” C‐Mad2, MIM peptides were added in 1:2 molar excess to ensure complete conversion.
All peptides were synthesized by Cambridge Research Biochemicals, UK. Peptides were dialyzed into 20 mM HEPES, pH 7.0, 100 mM NaCl, and 1 mM TCEP for NMR experiments. The sequences for the peptides used in this study are: Cdc20^MIM‐111‐138 ([…]), Cdc20^MIM‐123‐137 (FDVEEAKILRLSGKP), Cdc20^MIM‐123‐152 ([…]), Cdc20^MIM‐138‐152 (QNAPEGYQNRLKVLY), Mad1^MIM‐529‐550 ([…]), and MBP1^MIM (SWYSYPPPQRAV). […]

O‐Mad2 = conditions: NMR; ref Luo et al., [2004]; cited from earlier work
Description: To understand whether Mad2 conversion times are modulated by different C‐Mad2 ligands, we used time‐resolved NMR to determine the conversion time of 100 μM O‐Mad2^R133A at 25°C. The indole NH resonances of Trp75 and Trp167 were used as reporters (Figure 2b). […] In contrast, conversion took ~24 h in the absence of Cdc20^MIM‐111‐138 peptide (Fischer et al., [2022]) (Figures 2c and ...

[1] = cited from earlier work
Description: In contrast, conversion took ~24 h in the absence of Cdc20^MIM‐111‐138 peptide (Fischer et al., [2022]) (Figures 2c and ...

[2] = experimentally determined; ref Zhao et al., [2016]; cited from earlier work
Mad2^∆β7/β8 = conditions: ref Yang et al., [2008]; cited from earlier work
Excerpt: We reasoned that MIM binding to Mad2 is blocked until the β7/β8 hairpin is displaced (Figure 3c,d). To test this hypothesis, we generated a Mad2 variant with a deleted β7/β8 hairpin (Mad2^∆β7/β8: residues 1–165) (Figure 3e). Mad2^∆β7/β8 adopted a stable globular fold, and due to the absence of the C‐terminal residues, it was unable to adopt a closed conformation (Figure 3f). […] This is in agreement with a previous study that showe ...

C‐Mad2 = conditions: phage-display selected MIM peptide; ref Luo et al., [2002]; cited from earlier work
human wild-type Mad2 = biological target: T2, human wild-type Mad2 (human, UniProt Q13257 1-205); experiment: SEC; excess of Mad1^MIM peptide added to O-Mad2^WT, complex purified by size-exclusion chromatography; conditions: both partners purified
T2 construct: Mad2, human, wild type; limits follow from Mad2^Δβ7/β8 (residues 1-165), made from this construct by deleting residues 166-205; Tag is followed by a TEV site; 15N-labelled for NMR; Expressed and kept cold as the open state (O-Mad2); Construct described in Fischer et al. 2022; also called Mad2^WT; O-Mad2^WT; source: E. coli BL21 Star (DE3) with pRARE, purified

Mad2^R133A = biological target: T3, Mad2^R133A (human, UniProt Q13257 1-205, R133A); experiment: time-resolved NMR (series of 2D 1H,15N HSQC spectra); 100 μM 15N Mad2 variant, MIM peptide at two-fold molar excess, 25°C, 20 mM HEPES pH 7.0, 100 mM NaCl, 1 mM TCEP, 5% D2O; Trp75 and Trp167 indole NH resonances as reporters of the ligand-bound closed state; 12 min per spectrum, up to 24 h; conditions: both partners purified
T3 construct: Mad2, human, full-length, R133A; Tag is followed by a TEV site; 15N-labelled for NMR; Starts in the open state; also called O-Mad2^R133A; C-Mad2^R133A; source: E. coli BL21 Star (DE3) with pRARE, purified

Mad2^LL/R133A = biological target: T4, Mad2^LL/R133A (human, UniProt Q13257 1-205, residues 109–117 (TAKDDSAPR) with GSG | R133A); experiment: time-resolved NMR (series of 1H,15N SOFAST-HMQC spectra, residue conversion rates); 200 μM Mad2 variant, 950 MHz, 25°C, 500 spectra of 5 min over 42 h; disappearance of O-Mad2 and appearance of C-Mad2:Cdc20^MIM backbone resonances; conditions: both partners purified
T4 construct: Mad2, human; Mad2^LL construct (residues 109-117 replaced by GSG) with Ala for Arg133; numbers count on wild-type Mad2; Tag is followed by a TEV site; also called O-Mad2^LL/R133A; source: E. coli BL21 Star (DE3) with pRARE, purified

Mad2^L13A/R133A = biological target: T5, Mad2^L13A/R133A (human, UniProt Q13257 1-205, L13A | R133A); experiment: time-resolved NMR (series of 2D 1H,15N HSQC spectra); 100 μM 15N Mad2 variant, MIM peptide at two-fold molar excess, 25°C, 20 mM HEPES pH 7.0, 100 mM NaCl, 1 mM TCEP, 5% D2O; Trp75 and Trp167 indole NH resonances as reporters of the ligand-bound closed state; 12 min per spectrum, up to 24 h; conditions: both partners purified
T5 construct: Mad2, human, full-length, L13A and R133A; made from the Mad2^R133A mutant; Adopts the closed state without ligand; Tag is followed by a TEV site; also called “empty” C-Mad2; C-Mad2^L13A/R133A; source: E. coli BL21 Star (DE3) with pRARE, purified

Mad2^LL = biological target: T6, Mad2^LL (human, UniProt Q13257 1-205, residues 109–117 (TAKDDSAPR) with GSG); experiment: as above; conditions: both partners purified
T6 construct: Mad2, human; wild-type construct with residues 109-117 of the β5-αC loop replaced by GSG; Tag is followed by a TEV site; also called loop-less Mad2 mutant; O-Mad2^LL; source: E. coli BL21 Star (DE3) with pRARE, purified
T6 sequence (Q13257 other isoform, or with tags, fused parts or gaps with the stated changes): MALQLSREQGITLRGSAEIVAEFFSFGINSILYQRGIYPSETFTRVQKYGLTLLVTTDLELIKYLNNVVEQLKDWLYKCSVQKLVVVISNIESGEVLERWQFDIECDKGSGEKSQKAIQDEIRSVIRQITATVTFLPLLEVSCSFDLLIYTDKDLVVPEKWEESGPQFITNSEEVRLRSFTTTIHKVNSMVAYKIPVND

T3 sequence (Q13257 whole entry R133A): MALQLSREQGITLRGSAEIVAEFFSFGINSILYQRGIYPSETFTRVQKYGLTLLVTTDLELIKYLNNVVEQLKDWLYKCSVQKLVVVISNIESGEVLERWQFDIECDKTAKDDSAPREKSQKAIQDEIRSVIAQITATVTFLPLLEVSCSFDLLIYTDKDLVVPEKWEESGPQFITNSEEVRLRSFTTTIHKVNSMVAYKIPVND
T1 sequence (Q13257 whole entry R133A): as above
T4 sequence (Q13257 other isoform, or with tags, fused parts or gaps with the stated changes): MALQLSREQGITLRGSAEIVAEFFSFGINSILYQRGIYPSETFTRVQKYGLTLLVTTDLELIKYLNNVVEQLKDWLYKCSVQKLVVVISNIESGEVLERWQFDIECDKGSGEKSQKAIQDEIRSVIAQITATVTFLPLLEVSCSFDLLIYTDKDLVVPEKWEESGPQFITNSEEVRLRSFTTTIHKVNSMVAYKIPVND
T5 sequence (Q13257 whole entry L13A/R133A): as the sequence (Q13257 whole entry R133A) above, with L13A counted along it
T2 sequence (Q13257 whole entry, the tested form may be a part): as the sequence (Q13257 whole entry R133A) above, with A133R counted along it

For “FDVEEAKILRLSGKP [Cdc20^MIM‐123‐137, Cdc20^MIM spanning residues 123–137]”, which “Mad2 conversion rate/efficiency, in words” value (O‐Mad2^R133A; time-resolved NMR, compared with other Cdc20^MIM peptides) is on record?
Its value is “triggered Mad2 conversion at a similar rate as Cdc20^MIM‐111‐138”.

For “Mad1 residues 540–551: Mad1 residues 540–551, earlier NMR study (Luo et al., [2004]) (TKVLHMSLNPTS; UniProt Q9Y6D9 540-551, looked up, fragment)”, which “effect on O-Mad2 to C-Mad2 conversion, in words” value (O‐Mad2) is on record?
The value was “facilitate this conversion”.

Which “t1/2 of intrinsic O-Mad2 to C-Mad2 conversion, in words” value ([1]; in solution, ref Faesen et al., [2017], Lad et al., [2009], Luo et al., [2004], Simonetta et al.) does the source give for O‐Mad2: Mad2 in the open inactive state here?
Its value is “multiple hours”.

What about the melting temperature [2] of the same molecule?
Its melting temperature is 69 °C.

Which “spontaneous conversion time to "empty" C-Mad2” value ([1]; 100 μM, 25°C, absence of Cdc20^MIM-111-138 peptide, ref Fischer et al., [2022]) does the source give for “O‐Mad2^R133A: dimerization‐deficient mutant Mad2^R133A in its open state” here?
The value was ~ 24 h.

With SWYSYPPPQRAV [MBP1^MIM] as the molecule, how does the “time to complete Mad2 conversion” value (O‐Mad2^R133A; two-fold molar excess peptide, 20 mM HEPES pH 7.0, 100 mM NaCl, 1 mM TCEP, 5% D2O, Trp75/Trp167 indole NH reporters, 12 min per spectrum) read?
Its value is ≤ 60 min.

And the “interaction with Mad2^∆β7/β8, in words” value (Mad2^∆β7/β8)?
Its value is “weak interaction”.

And the “C-Mad2 affinity, in words” value (C‐Mad2)?
Its value is “enhanced C‐Mad2 affinity”.

B1: Mad1^MIM-529-550 (peptide)
peptide: RALQGDYDQSRTKVLHMSLNPT
notes: source: synthetic peptide (Cambridge Research Biochemicals)
Which results are given for B1?
binding result (human wild-type Mad2): binds; binding result (Mad2^R133A): binds

B2: Cdc20^MIM-123-152 (peptide)
peptide: FDVEEAKILRLSGKPQNAPEGYQNRLKVLY
notes: also called MIM peptide; source: synthetic peptide (Cambridge Research Biochemicals)
Which results are given for B2?
binding result (Mad2^LL/R133A): binds; binding result (Mad2^R133A): binds

B3: MBP1^MIM (peptide)
peptide: SWYSYPPPQRAV
notes: as for B1
Does B3 bind (Mad2^R133A)?
Result: binds

B4: Cdc20^MIM-111-138 (peptide)
peptide: EHQKAWALNLNGFDVEEAKILRLSGKPQ
notes: as for B1
What does the source list for B4?
binding result (Mad2^L13A/R133A): binds; binding result (Mad2^LL): binds

B5: Cdc20^MIM-123-137 (peptide)
peptide: FDVEEAKILRLSGKP
notes: as for B1
Does B5 bind (Mad2^R133A)?
Result: binds
